Legend:
HeLa Kyoto [1] = assay: solubility change mitosis vs G1/S (difference of NP-40 vs SDS log2 ratios) (log2 ratio difference); higher = more soluble in mitosis
HeLa Kyoto [2] = assay: thermal stability score vs G1/S (z-score of summed log2 fold changes over temperatures); higher = more thermally stable than in G1/S
HeLa Kyoto [3] = assay: solubility in G1/S (NP-40 vs SDS abundance) (log2 ratio); higher = more soluble; settings: cell cycle stage: G1/S
HeLa Kyoto [4] = assay: melting temperature (median over replicates), in situ; higher = more thermally stable
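Wherever melting temperature (median over replicates), in situ is given: HeLa Kyoto cells synchronized by double thymidine or nocodazole block, proteins quantified by TMT10plex mass spectrometry, three independent biological replicates.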
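Wherever solubility change mitosis vs G1/S (difference of NP-40 vs SDS log2 ratios) is given: synchronized HeLa Kyoto cells (double thymidine block for G1/S, nocodazole release for mitosis), protein amounts in NP-40 versus SDS lysates quantified by mass spectrometry, three biological replicates.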
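Wherever solubility in G1/S (NP-40 vs SDS abundance) is given: HeLa Kyoto cells arrested at G1/S by double thymidine block, proteins quantified by TMT10plex mass spectrometry in mild NP-40 versus SDS extracts, three biological replicates.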
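Wherever thermal stability score vs G1/S (z-score of summed log2 fold changes over temperatures) is given: synchronized HeLa Kyoto cells, proteins quantified by TMT10plex mass spectrometry, three biological replicates, mitosis taken 0.5 h after nocodazole release, G1/S directly after double thymidine block.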

Row | Substance | solubility change mitosis (log2) (HeLa Kyoto [1]) | thermal stability score (HeLa Kyoto [2]; cell cycle stage: early G1 (4.5 h after nocodazole release)) | thermal stability score (HeLa Kyoto [2]; cell cycle stage: mitosis) | solubility in G1/S (log2) (HeLa Kyoto [3]) | melting temperature (HeLa Kyoto [4]; cell cycle stage: G1/S) | melting temperature (HeLa Kyoto [4]; cell cycle stage: mitosis)
1 | NHS | -0.00515 | 0.656 | 0.325 | -0.153 | – | –
2 | MAAGKFASLPRNMPVNHQFPLASSMDLLSSRSPLAEHRPDAYQDVSIHGTLPRKKKGPPPIRSCDDFSHMGTLPHSKSPRQNSPVTQDGIQESPWQDRHGETFTFRDPHLLDPTVEYVKFSKERHIMDRTPEKLKKELEEELLLSSEDLRSHAWYHGRIPRQVSENLVQRDGDFLVRDSLSSPGNFVLTCQWKNLAQHFKINRTVLRLSEAYSRVQYQFEMESFDSIPGLVRCYVGNRRPISQQSGAIIFQPINRTVPLRCLEEHYGTSPGQAREGSLTKGRPDVAKRLSLTMGGVQAREQNLPRGNLLRNKEKSGSQPACLDHMQDRRALSLKAHQSESYLPIGCKLPPQSSGVDTSPCPNSPVFRTGSEPALSPAVVRRVSSDARAGEALRGSDSQLCPKPPPKPCKVPFLKVPSSPSAWLNSEANYCELNPAFATGCGRGAKLPSCAQGSHTELLTAKQNEAPGPRNSGVNYLILDDDDRERPWEPAAAQMEKGQWDKGEFVTPLLETVSSFRPNEFESKFLPPENKPLETAMLKRAKELFTNNDPKVIAQHVLSMDCRVARILGVSEEMRRNMGVSSGLELITLPHGHQLRLDIIERHNTMAIGIAVDILGCTGTLEDRAATLSKIIQVAVELKDSMGDLYSFSALMKALEMPQITRLEKTWTALRHQYTQTAILYEKQLKPFSKLLHEGRESTCVPPNNVSVPLLMPLVTLMERQAVTFEGTDMWEKNDQSCEIMLNHLATARFMAEAADSYRMNAERILAGFQPDEEMNEICKTEFQMRLLWGSKGAQVNQTERYEKFNQILTALSRKLEPPPVKQAEL [BCAR3] | 0.0356 | – | – | 0.00142 | 46.3 °C | 50.1 °C
3 | MGEFKVHRVRFFNYVPSGIRCVAYNNQSNRLAVSRTDGTVEIYNLSANYFQEKFFPGHESRATEALCWAEGQRLFSAGLNGEIMEYDLQALNIKYAMDAFGGPIWSMAASPSGSQLLVGCEDGSVKLFQITPDKIQFERNFDRQKSRILSLSWHPSGTHIAAGSIDYISVFDVKSGSAVHKMIVDRQYMGVSKRKCIVWGVAFLSDGTIISVDSAGKVQFWDSATGTLVKSHLIANADVQSIAVADQEDSFVVGTAEGTVFHFQLVPVTSNSSEKQWVRTKPFQHHTHDVRTVAHSPTALISGGTDTHLVFRPLMEKVEVKNYDAALRKITFPHRCLISCSKKRQLLLFQFAHHLELWRLGSTVATGKNGDTLPLSKNADHLLHLKTKGPENIICSCISPCGSWIAYSTVSRFFLYRLNYEHDNISLKRVSKMPAFLRSALQILFSEDSTKLFVASNQGALHIVQLSGGSFKHLHAFQPQSGTVEAMCLLAVSPDGNWLAASGTSAGVHVYNVKQLKLHCTVPAYNFPVTAMAIAPNTNNLVIAHSDQQVFEYSIPDKQYTDWSRTVQKQGFHHLWLQRDTPITHISFHPKRPMHILLHDAYMFCIIDKSLPLPNDKTLLYNPFPPTNESDVIRRRTAHAFKISKIYKPLLFMDLLDERTLVAVERPLDDIIAQLPPPIKKKKFGT [CIRH1A] | 0.349 | – | – | -1.13 | 54.3 °C | 52.3 °C
4 | ZNF318 | -0.0151 | – | – | -0.136 | 46.2 °C | 49.2 °C
5 | MAAAPQAPGRGSLRKTRPLVVKTSLNNPYIIRWSALESEDMHFILQTLEDRLKAIGLQKIEDKKKKNKTPFLKKESREKCSIAVDISENLKEKKTDAKQQVSGWTPAHVRKQLAIGVNEVTRALERRELLLVLVCKSVKPAMITSHLIQLSLSRSVPACQVPRLSERIAPVIGLKCVLALAFKKNTTDFVDEVRAIIPRVPSLSVPWLQDRIEDSGENLETEPLESQDRELLDTSFEDLSKPKRKLADGRQASVTLQPLKIKKLIPNPNKIRKPPKSKKATPK [RPP38] | -0.0549 | – | – | 0.342 | 53.1 °C | 51.7 °C
6 | MAQVLHVPAPFPGTPGPASPPAFPAKDPDPPYSVETPYGYRLDLDFLKYVDDIEKGHTLRRVAVQRRPRLSSLPRGPGSWWTSTESLCSNASGDSRHSAYSYCGRGFYPQYGALETRGGFNPRVERTLLDARRRLEDQAATPTGLGSLTPSAAGSTASLVGVGLPPPTPRSSGLSTPVPPSAGHLAHVREQMAGALRKLRQLEEQVKLIPVLQVKLSVLQEEKRQLTVQLKSQKFLGHPTAGRGRSELCLDLPDPPEDPVALETRSVGTWVRERDLGMPDGEAALAAKVAVLETQLKKALQELQAAQARQADPQPQAWPPPDSPVRVDTVRVVEGPREVEVVASTAAGAPAQRAQSLEPYGTGLRALAMPGRPESPPVFRSQEVVETMCPVPAAATSNVHMVKKISITERSCDGAAGLPEVPAESSSSPPGSEVASLTQPEKSTGRVPTQEPTHREPTRQAASQESEEAGGTGGPPAGVRSIMKRKEEVADPTAHRRSLQFVGVNGGYESSSEDSSTAENISDNDSTENEAPEPRERVPSVAEAPQLRPAGTAAAKTSRQECQLSRESQHIPTAEGASGSNTEEEIRMELSPDLISACLALEKYLDNPNALTERELKVAYTTVLQEWLRLACRSDAHPELVRRHLVTFRAMSARLLDYVVNIADSNGNTALHYSVSHANFPVVQQLLDSGVCKVDKQNRAGYSPIMLTALATLKTQDDIETVLQLFRLGNINAKASQAGQTALMLAVSHGRVDVVKALLACEADVNVQDDDGSTALMCACEHGHKEIAGLLLAVPSCDISLTDRDGSTALMVALDAGQSEIASMLYSRMNIKCSFAPMSDDESPTSSSAEE [KANK2] | -0.0916 | – | – | -0.0486 | 46.7 °C | –
7 | TATDN3 | -0.0652 | – | – | 0.608 | 56.5 °C | 56.3 °C
